Test [1] concerns the target T1, GluN1-N3A di-heteromeric NMDA receptor (rat, CTD-truncated; fraction of the same preparation) (rat, UniProt P35439-1;Q9R1M7-1).
T1 construct: signal peptide in the construct; rat GluN1-1a, residues 1-847, as m1; rat GluN3A, residues 1-965, as m3; also called GluN1-N3A di-NMDARs; source: HEK293S GnTI- cells, baculovirus transduction; copies: 2 + 2
In words: SEC; fluorescence-detection size-exclusion chromatography (FSEC); receptors preincubated with N1-Fab 4F11, N2A-Fab 28C or both; shift of the elution peak. The conditions noted are these: both partners purified. For orientation: Size exclusion chromatography separates by hydrodynamic size, large species first.

Test [2] addresses T2, rat GluN1-1a (residues 1-847), CTD-truncated (rat, UniProt P35439-1).
T2 construct: signal peptide in the construct; rat GluN1-1a, residues 1-847 (CTD-truncated), GenBank NP_058706.1; no tag is stated for GluN1 itself; a T2A remnant may remain on one of the two chains (surmise); source: HEK293S GnTI- cells, baculovirus transduction, co-expressed with GluN2A and GluN3A; purified as receptor complex (Strep-Tactin, Ni resin, SEC)
As to the kind of experiment: cryo-EM structure; GluN1-N2A-N3A (subunits co-expressed and co-purified) incubated with Fabs 4F11 and 2-8C, SEC in digitonin with 1 mM glycine and 1 mM glutamate, pH 8.0; overall resolution 7.7 Å. The conditions noted are these: both partners purified.

B1: N1-Fab 4F11 (Fab of the anti-GluN1 monoclonal antibody clone 4F11) (Fab, V domains shown)
VH: DVQLQESGPGLVKPSQSLSLTCTVTGYSITSDYAWNWIRQFPGNKLEWMGYISYSGSTGYNPSLKSRISITRDTSKNQFFLQLNSVTTEDTATYYCARLYYGFYGMDYWGQGTSVTVSS
VL: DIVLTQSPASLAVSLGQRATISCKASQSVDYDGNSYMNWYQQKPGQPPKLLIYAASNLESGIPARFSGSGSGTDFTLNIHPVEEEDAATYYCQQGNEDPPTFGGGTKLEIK
notes: Raised against CTD-truncated human GluN1-N2A receptors; also called Fab-N1_(4F11); source: hybridoma monoclonal antibody, papain digestion, Fc removed with protein-A agarose, purified by SEC
Regarding B1, the binding result in test [1] and in test [2] was “binds” throughout.

Values taken from article doi:10.1101/2025.08.25.672209, “Molecular Architecture and Function Mechanism of Tri-heteromeric GluN1-N2-N3A NMDA Receptors” (bioRxiv, 2025).
